Experimental data as given in publication PMC9486808 (ACS Chemical Biology, 2022).
No end group written: not given here.

The binders below were run against Recombinant soluble trimeric H1 HA ectodomain of A/California/04/2009 (H1N1) (Influenza A virus A/California/04/2009 …) (assay: fluorescence polarisation). Settings: both partners purified.

Binder | Kd [nM]
YRWVWTSFFSEPYFVVC (thioether (positions not given here); not fully specified (N-terminus, bridges); also: fluorescein (FAM) label, position not given here) [Fluorescein-labeled macrocyclic peptide L4] | ≤ 1
YLKIYWSKIHGLVSEWC (thioether (positions not given here); not fully specified (N-terminus, bridges); also: fluorescein (FAM) label, position not given here) [Fluorescein-labeled macrocyclic peptide S3] | ≤ 1
YWHKNKYVLTYSCLFAA (thioether (positions not given here); not fully specified (N-terminus, bridges); also: fluorescein (FAM) label, position not given here) [Fluorescein-labeled macrocyclic peptide L2] | 2.4
YVLFRWDHGTLATHWVC (thioether (positions not given here); not fully specified (N-terminus, bridges); also: fluorescein (FAM) label, position not given here) [Fluorescein-labeled macrocyclic peptide S5] | ≤ 1
